Substrate in this data set: O=P(O)(O)OP(=O)(O)O
The experiment in a line: purified protein. The note with it: Mg2+ (MgPPi complex is the true substrate; free PPi inhibits).

Data on one protein can be found in publication PMC9230926.

B1: UDP-glucose pyrophosphorylase (UGPase) (Hordeum vulgare) (protein)
chain: MAAAAVAADSKIDGLRDAVAKLGEISENEKAGFISLVSRYLSGEAEQIEWSKIQTPTDEVVVPYDTLAPPPEDLDAMKALLDKLVVLKLNGGLGTTMGCTGPKSVIEVRNGFTFLDLIVIQIESLNKKYGCSVPLLLMNSFNTHDDTQKIVEKYSNSNIEIHTFNQSQYPRIVTEDFLPLPSKGQTGKDGWYPPGHGDVFPSLNNSGKLDTLLSQGKEYVFVANSDNLGAIVDIKILNHLIHNQNEYCMEVTPKTLADVKGGTLISYEGRVQLLEIAQVPDEHVDEFKSIEKFKIFNTNNLWVNLKAIKRLVDAEALKMEIIPNPKEVDGVKVLQLETAAGAAIRFFEKAIGINVPRSRFLPVKATSDLLLVQSDLYTLVDGYVIRNPARVKPSNPSIELGPEFKKVANFLARFKSIPSIVELDSLKVSGDVSFGSGVVLKGNVTIAAKAGVKLEIPDGAVLENKDINGPEDI
As for B1, the Km was determined as 60 µM.
